Experimental data: the Immune Epitope Database (IEDB)
Blank lines part the entries; values can stand above or below the sequence they belong to.

What was measured:
[1] = target: HLA-A*02:01; experiment: IEDB peptide-MHC binding, purified MHC/competitive/fluorescence; filed as Kd, often an IC50 or EC50 that approximates it; ≥ and ≤ were set here for values at or beyond the usual limits of such assays; settings: source organism: Cryptococcus neoformans var. neoformans B-3501A
[2] = target: HLA-A*03:01; experiment: as above
[3] = target: HLA-A*26:01; experiment: as above
[4] = target: HLA-B*15:01; experiment: as above
[5] = target: HLA-B*18:01; experiment: as above
[6] = target: HLA-B*27:03; experiment: as above
[7] = target: HLA-B*39:01; experiment: as above
[8] = target: HLA-B*46:01; experiment: as above
[9] = target: HLA-B*57:01; experiment: as above
[10] = target: HLA-A*02:01; experiment: IEDB peptide-MHC binding, purified MHC/direct/fluorescence; filed as Kd, often an IC50 or EC50 that approximates it; ≥ and ≤ were set here for values at or beyond the usual limits of such assays
[11] = target: HLA-B*15:17; experiment: IEDB peptide-MHC binding, purified MHC/competitive/fluorescence; filed as Kd, often an IC50 or EC50 that approximates it; ≥ and ≤ were set here for values at or beyond the usual limits of such assays
[12] = target: HLA-B*51:01; experiment: as above
[13] = target: HLA-A*02:01; experiment: IEDB peptide-MHC binding, purified MHC/competitive/fluorescence; ≥ and ≤ were set here for values at or beyond the usual limits of such assays; settings: source organism: Zaire ebolavirus
[14] = target: HLA-A*11:01; experiment: as above
[15] = target: HLA-A*02:01; experiment: IEDB peptide-MHC binding, purified MHC/competitive/radioactivity; filed as Kd, often an IC50 or EC50 that approximates it; ≥ and ≤ were set here for values at or beyond the usual limits of such assays
[16] = target: HLA-A*02:17; experiment: as above
[17] = target: HLA-A*69:01; experiment: IEDB peptide-MHC binding, purified MHC/competitive/fluorescence; filed as Kd, often an IC50 or EC50 that approximates it; ≥ and ≤ were set here for values at or beyond the usual limits of such assays; settings: source organism: Homo sapiens
[18] = target: HLA-A*01:01; experiment: IEDB peptide-MHC binding, purified MHC/direct/fluorescence; filed as Kd, often an IC50 or EC50 that approximates it; ≥ and ≤ were set here for values at or beyond the usual limits of such assays
[19] = target: HLA-A*03:01; experiment: as above
[20] = target: HLA-A*11:01; experiment: as above
[21] = target: HLA-A*29:02; experiment: as above
[22] = target: HLA-A*31:01; experiment: as above
[23] = target: HLA-A*69:01; experiment: as above
[24] = target: HLA-B*08:01; experiment: as above
[25] = target: HLA-B*15:01; experiment: as above
[26] = target: HLA-B*18:01; experiment: as above
[27] = target: HLA-B*27:05; experiment: as above
[28] = target: HLA-B*40:01; experiment: as above
[29] = target: HLA-B*44:02; experiment: as above
[30] = target: HLA-B*46:01; experiment: as above
[31] = target: HLA-B*57:01; experiment: as above
[32] = target: HLA-B*58:01; experiment: as above
[33] = target: HLA-A*02:12; experiment: as above; settings: source organism: Zaire ebolavirus
[34] = target: HLA-A*02:19; experiment: as above; settings: source organism: Zaire ebolavirus
[35] = target: HLA-A*24:03; experiment: as above; settings: source organism: Zaire ebolavirus
[36] = target: HLA-A*68:02; experiment: as above; settings: source organism: Zaire ebolavirus
[37] = target: HLA-B*48:01; experiment: as above; settings: source organism: Ebola virus - Gabon (1994-1997)
[38] = target: HLA-B*15:17; experiment: as above; settings: source organism: West Nile virus
[39] = target: HLA-A*02:03; experiment: IEDB peptide-MHC binding, purified MHC/competitive/radioactivity; filed as Kd, often an IC50 or EC50 that approximates it; ≥ and ≤ were set here for values at or beyond the usual limits of such assays; settings: source organism: Dengue virus 3 Martinique/1243/1999
[40] = target: HLA-A*02:06; experiment: as above; settings: source organism: Dengue virus 3 Martinique/1243/1999
[41] = target: HLA-A*68:02; experiment: as above; settings: source organism: Dengue virus 3 Martinique/1243/1999
[42] = source organism: Cryptococcus neoformans var. neoformans B-3501A
[43] = source organism: Zaire ebolavirus
[44] = source organism: Sudan ebolavirus
[45] = source organism: Dengue virus 4 Dominica/814669/1981
[46] = source organism: Dengue virus 3 China/80-2/1980
[47] = source organism: Reston ebolavirus - Reston
[48] = source organism: Reston ebolavirus
[49] = source organism: Ebola virus - Gabon (1994-1997)
[50] = source organism: Dengue virus 1 Singapore/S275/1990

Sequence: AIDDFCLFA
- Kd [1]: 0.0135 µM
- Kd [2, 42]: ≥ 20 µM
- Kd [3, 42]: ≥ 20 µM
- Kd [4, 42]: ≥ 20 µM
- Kd [5, 42]: ≥ 20 µM
- Kd [6, 42]: ≥ 20 µM
- Kd [7, 42]: ≥ 20 µM
- Kd [8, 42]: ≥ 20 µM
- Kd [9, 42]: ≥ 20 µM

- Kd ([10]; source organism: Homo sapiens): 0.0008 µM
- Kd ([3]; source organism: Homo sapiens): ≥ 20 µM
- Kd ([4]; source organism: Homo sapiens): ≥ 20 µM
- Kd ([11]; source organism: Homo sapiens): ≥ 20 µM
- Kd ([5]; source organism: Homo sapiens): ≥ 20 µM
- Kd ([6]; source organism: Homo sapiens): ≥ 20 µM
- Kd ([8]; source organism: Homo sapiens): ≥ 20 µM
- Kd ([12]; source organism: Homo sapiens): ≥ 20 µM
- Kd ([9]; source organism: Homo sapiens): ≥ 20 µM
Sequence: MQDVFTFYV

Sequence: GVNNLEHGL
- IC50 [13]: 6.44 µM
- IC50 [14, 43]: ≥ 132 µM

Sequence: GEWAFWENK
- IC50 [14, 44]: 26.2 µM

Sequence: EDDDAASSR
- IC50 [14, 44]: ≥ 70.9 µM

Sequence: QAKKDFFSS
- IC50 [14, 43]: 66.8 µM

Sequence: SMGLITIAV
- Kd [15, 45]: 0.00999 µM
- Kd [16, 45]: 0.776 µM

- Kd ([10]; source organism: Mus musculus): 0.432 µM
- Kd ([3]; source organism: Homo sapiens): ≥ 20 µM
- Kd [17]: ≥ 20 µM
- Kd ([4]; source organism: Homo sapiens): ≥ 20 µM
- Kd ([11]; source organism: Homo sapiens): ≥ 20 µM
- Kd ([5]; source organism: Homo sapiens): ≥ 20 µM
- Kd ([6]; source organism: Homo sapiens): ≥ 20 µM
- Kd ([7]; source organism: Homo sapiens): ≥ 20 µM
- Kd ([8]; source organism: Homo sapiens): ≥ 20 µM
- Kd ([12]; source organism: Homo sapiens): ≥ 20 µM
- Kd ([9]; source organism: Homo sapiens): ≥ 20 µM
Sequence: FLQQRKPPL

- Kd ([10]; source organism: Homo sapiens): 0.0075 µM
- Kd ([3]; source organism: Homo sapiens): ≥ 20 µM
- Kd [17]: ≥ 20 µM
- Kd ([4]; source organism: Homo sapiens): ≥ 20 µM
- Kd ([11]; source organism: Homo sapiens): ≥ 20 µM
- Kd ([5]; source organism: Homo sapiens): ≥ 20 µM
- Kd ([6]; source organism: Homo sapiens): ≥ 20 µM
- Kd ([7]; source organism: Homo sapiens): ≥ 20 µM
- Kd ([8]; source organism: Homo sapiens): ≥ 20 µM
- Kd ([12]; source organism: Homo sapiens): ≥ 20 µM
- Kd ([9]; source organism: Homo sapiens): ≥ 20 µM
Sequence: YITDYSNDI

Sequence: VLDHILQKT
- IC50 [13]: 2.62 µM
- IC50 [14, 43]: 55 µM

Sequence: YMGEDGCWYG
- Kd [15, 46]: 0.211 µM
- Kd [16, 46]: 6.04 µM

Sequence: FHRKKTDAL
- Kd [18, 47]: ≥ 20 µM
- Kd [10, 47]: ≥ 20 µM
- Kd [19, 47]: ≥ 20 µM
- Kd [20, 47]: ≥ 20 µM
- Kd [21, 47]: ≥ 20 µM
- Kd [22, 47]: ≥ 20 µM
- Kd [23, 47]: ≥ 20 µM
- Kd [24, 47]: 0.451 µM
- Kd [25, 47]: ≥ 20 µM
- Kd [26, 47]: ≥ 20 µM
- Kd [27, 47]: ≥ 20 µM
- Kd [28, 47]: ≥ 20 µM
- Kd [29, 47]: ≥ 20 µM
- Kd [30, 47]: ≥ 20 µM
- Kd [31, 47]: ≥ 20 µM
- Kd [32, 47]: ≥ 20 µM
- Kd [3, 48]: ≥ 20 µM
- Kd [11, 48]: ≥ 20 µM
- Kd [6, 48]: ≥ 20 µM

Sequence: LMSGKDVFYL
- Kd [15, 46]: 0.00476 µM
- Kd [16, 46]: 0.00867 µM

Sequence: LLANILSEK
- Kd ([2]; source organism: Rickettsia sibirica 246): 0.0078 µM

Sequence: QLSLKMLSL
- Kd [18, 49]: ≥ 20 µM
- Kd [10, 49]: ≥ 20 µM
- Kd [33]: ≥ 20 µM
- Kd [34]: ≥ 20 µM
- Kd [19, 49]: ≥ 20 µM
- Kd [20, 49]: ≥ 20 µM
- Kd [35]: ≥ 20 µM
- Kd [21, 49]: ≥ 20 µM
- Kd [22, 49]: ≥ 20 µM
- Kd [36]: ≥ 20 µM
- Kd [23, 49]: ≥ 20 µM
- Kd [24, 49]: 0.816 µM
- Kd [25, 49]: ≥ 20 µM
- Kd [26, 49]: ≥ 20 µM
- Kd [27, 49]: ≥ 20 µM
- Kd [28, 49]: ≥ 20 µM
- Kd [29, 49]: ≥ 20 µM
- Kd [30, 49]: ≥ 20 µM
- Kd [37]: ≥ 20 µM
- Kd [31, 49]: ≥ 20 µM
- Kd [32, 49]: ≥ 20 µM
- Kd [3, 43]: ≥ 20 µM
- Kd [6, 43]: ≥ 20 µM
- Kd [7, 43]: ≥ 20 µM
- Kd [12, 43]: ≥ 20 µM

Sequence: RAWNSGYEW
- Kd [38]: 0.0044 µM

- Kd ([2]; source organism: Escherichia coli 536): 0.0903 µM
Sequence: VLGYSRMLY

Sequence: YLALMATFKM
- Kd [15, 50]: 0.0128 µM
- Kd [16, 50]: 0.182 µM

Sequence: GLFNYFFGK
- Kd ([2]; source organism: Entamoeba histolytica HM-1:IMSS): 0.041 µM

Sequence: FLAIPPTAGV
- Kd [39]: 0.00172 µM
- Kd [40]: 0.12 µM
- Kd [16, 46]: 0.0119 µM
- Kd [41]: 0.00973 µM
